± gives the uncertainty stated by the source.
Assay: self-splicing fitness, log relative to wild type (ln ratio); higher = more splicing; Tetrahymena group I intron in knt gene, E. coli kanamycin selection, DiMSum; sequences stand for … in CUCUCU…GGAGGGAAAAGUUAUCAGGCAUGCACCUGGUAGCUAGUCUUUAAACCAAUAGAUUGCAUCGGUUUAAAAGGCAAGACCGUCAAAUUGCGGGAAAGGGGUCAACAGCCGUUCAGUACCAAGUCUCAGGGGAAACUUUGAGAUGGCCUUGCAAAGGGUAUGGUAAUAAGCUGACGGACAUGGUCCUAACCACGCAGCCAAGUCCUAAGUCAACAGAUCUUCUGUUGAUAUGGAUGCAGUUCACAGACUAAAUGUCGGUCGGGGAAGAUGUAUUCUUCUCAUAAGAUAUAGUCGGACCUCUCCUUAAUGGGAGCUAGCGGAUGAAGUGAUGCAACACUGGAGCCGCUGGGAACUAAUUUGUAUGCGAAAGUAUAUUGAUUAGUUUUGGAGUACUCGUGGUCG
Method in brief: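 Fitness was computed with DiMSum as the error-weighted combination of replicate fold changes, kanamycin versus none, each normalised to wild type. The library randomised all eight intron nucleotides of the P1ex region, with the intron placed in the knt kanamycin-resistance gene on pET-22b(+) in E. coli BL21(DE3). Six replicate transformations were grown overnight at 37°C or 30°C on LB agar with or without 25 μg/mL kanamycin, plus 100 μg/mL carbenicillin, 50 μM IPTG and 0.2% rhamnose. Pooled colonies were amplicon-sequenced on an Illumina HiSeq 2500.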

Sequence	self-splicing fitness (ln) (30 °C)	self-splicing fitness (ln) (37 °C)
AUUAAGCAAUAUUACGUGAU	-1.74 ± 0.089	-1.34 ± 0.12
AUUAAGCAAUAUUACGUGCA	-1.03 ± 0.089	-0.282 ± 0.11
AUUAAGCAAUAUUACGUGUC	-3.58 ± 0.21	-1.02 ± 0.16
AUUCAGCAAUAUUACGAAUG	-1.54 ± 0.11	-0.673 ± 0.13
AUUCAGCAAUAUUACGACAA	-0.461 ± 0.15	-0.889 ± 0.19
AUUCAGCAAUAUUACGACUC	-0.805 ± 0.19	0.11 ± 0.19
AUUCAGCAAUAUUACGAGAU	-2.7 ± 0.17	-0.722 ± 0.13
AUUCAGCAAUAUUACGCCUC	-1.43 ± 0.15	0.286 ± 0.16
AUUCAGCAAUAUUACGCGUG	-1.25 ± 0.054	-0.218 ± 0.069
AUUCAGCAAUAUUACGGCUA	0.293 ± 0.09	-0.022 ± 0.084
AUUCAGCAAUAUUACGUAAA	-0.737 ± 0.08	-0.148 ± 0.12
AUUCAGCAAUAUUACGUAGG	-1.64 ± 0.13	-0.941 ± 0.17
AUUCAGCAAUAUUACGUCUG	-2.09 ± 0.11	-1.33 ± 0.11
AUUCAGCAAUAUUACGUGAU	-0.92 ± 0.061	-0.187 ± 0.078
AUUCAGCAAUAUUACGUUCU	-0.926 ± 0.074	-0.163 ± 0.1
AUUCAGCAAUAUUACGUUGU	-3.14 ± 0.15	-2.3 ± 0.21
AUUCAGCAAUAUUACGUUUA	-1.18 ± 0.12	-0.911 ± 0.11
AUUGAGCAAUAUUACGAAAC	-2.48 ± 0.45	
AUUGAGCAAUAUUACGAACU	-1.9 ± 0.23	-0.643 ± 0.2
AUUGAGCAAUAUUACGACAU	-0.372 ± 0.013	-0.153 ± 0.033
AUUGAGCAAUAUUACGACGG	-4.09 ± 0.31	-3.4 ± 0.26
AUUGAGCAAUAUUACGAGAA	-2.35 ± 0.45	-2.62 ± 0.26
AUUGAGCAAUAUUACGAUAA		-2.14 ± 0.4
AUUGAGCAAUAUUACGAUAG	-4.02 ± 0.28	-3.03 ± 0.3

Sequence	self-splicing fitness (ln) (30 °C)	self-splicing fitness (ln) (37 °C)
AUUGAGCAAUAUUACGCGCG	-3.04 ± 0.21	-2.22 ± 0.16
AUUGAGCAAUAUUACGCUGA	-3.1 ± 0.36	-2.27 ± 0.29
AUUGAGCAAUAUUACGGGAA	-3.22 ± 0.37	-3.86 ± 0.46
AUUGAGCAAUAUUACGGGGU	-3.33 ± 0.25	-3.44 ± 0.27
AUUGAGCAAUAUUACGGUUU	-3.23 ± 0.21	-2.16 ± 0.22
AUUGAGCAAUAUUACGUAUG	-3.63 ± 0.46	
AUUGAGCAAUAUUACGUGAA	-2.5 ± 0.15	-1.74 ± 0.27
AUUGAGCAAUAUUACGUGCA	-2.91 ± 0.15	-1.85 ± 0.14
AUUGAGCAAUAUUACGUGGA	-2.87 ± 0.26	-1.61 ± 0.21
AUUGAGCAAUAUUACGUUCA	-1.59 ± 0.17	-0.11 ± 0.17
AUUGAGCAAUAUUACGUUUC		-2.57 ± 0.48
AUUUAGCAAUAUUACGAAAU	-2 ± 0.31	-1.54 ± 0.27
AUUUAGCAAUAUUACGAGAG		-2.7 ± 0.3
AUUUAGCAAUAUUACGAUGU	-1.08 ± 0.096	0.369 ± 0.11
AUUUAGCAAUAUUACGCCUA	-1.24 ± 0.2	0.0334 ± 0.19
AUUUAGCAAUAUUACGCGAU	-3.22 ± 0.33	-2.49 ± 0.48
AUUUAGCAAUAUUACGCGCA	-0.312 ± 0.13	-0.00399 ± 0.16
AUUUAGCAAUAUUACGCGUU	-2.01 ± 0.2	-1.3 ± 0.19
AUUUAGCAAUAUUACGGCAA	-1.05 ± 0.16	-0.726 ± 0.17
AUUUAGCAAUAUUACGGCGU	-0.211 ± 0.11	0.269 ± 0.13
AUUUAGCAAUAUUACGUAAU	-0.35 ± 0.082	-0.32 ± 0.12
AUUUAGCAAUAUUACGUCCC	-0.0323 ± 0.37	-0.682 ± 0.42
AUUUAGCAAUAUUACGUGGA	-3.25 ± 0.21	-2.04 ± 0.16
AUUUAGCAAUAUUACGUUGA	-1.32 ± 0.2	-2.27 ± 0.26

Sequence	self-splicing fitness (ln) (30 °C)	self-splicing fitness (ln) (37 °C)
CAAAAGCAAUAUUACGAAAC	-4.17 ± 0.39	-3.75 ± 0.33
CAAAAGCAAUAUUACGAAUG	-1.18 ± 0.057	-0.723 ± 0.076
CAAAAGCAAUAUUACGAGAC	-3.62 ± 0.39	-2.36 ± 0.21
CAAAAGCAAUAUUACGAGCA	-2.5 ± 0.14	-1.97 ± 0.14
CAAAAGCAAUAUUACGAUUU	-1.18 ± 0.061	-0.732 ± 0.075
CAAAAGCAAUAUUACGCAAA	-2.48 ± 0.14	-1.76 ± 0.17
CAAAAGCAAUAUUACGCAUG	-3.93 ± 0.19	-0.824 ± 0.15
CAAAAGCAAUAUUACGCCCU	-2.13 ± 0.17	-0.434 ± 0.17
CAAAAGCAAUAUUACGCGAU	-4 ± 0.3	-1.78 ± 0.23
CAAAAGCAAUAUUACGCGUU	-3.91 ± 0.17	-2.74 ± 0.13
CAAAAGCAAUAUUACGCUGG	-2.88 ± 0.19	-1.9 ± 0.17
CAAAAGCAAUAUUACGGCUC	-1.56 ± 0.12	0.0316 ± 0.14
CAAAAGCAAUAUUACGGGCA	-2.88 ± 0.16	-1.99 ± 0.14
CAAAAGCAAUAUUACGGGCU	-3.65 ± 0.23	-2.57 ± 0.21
CAAAAGCAAUAUUACGUAGC	-3.1 ± 0.13	-2.61 ± 0.24
CAAAAGCAAUAUUACGUAUG	-2.89 ± 0.098	-2.22 ± 0.13
CAAAAGCAAUAUUACGUCAA	-3.34 ± 0.11	-2.86 ± 0.12
CAAAAGCAAUAUUACGUCCA	-1.7 ± 0.18	-2.05 ± 0.16
CAAAAGCAAUAUUACGUCCC	-2.65 ± 0.26	-2.26 ± 0.42
CAAAAGCAAUAUUACGUCGU	-3.83 ± 0.12	-1.54 ± 0.1
CAAAAGCAAUAUUACGUGAU	-3.62 ± 0.11	-2.41 ± 0.12
CAAAAGCAAUAUUACGUGCA	-2.95 ± 0.12	-1.96 ± 0.12
CAAAAGCAAUAUUACGUGGA	-3.4 ± 0.14	-2 ± 0.096
CAAAAGCAAUAUUACGUGUG	-2.48 ± 0.055	-1.09 ± 0.059

Sequence	self-splicing fitness (ln) (30 °C)	self-splicing fitness (ln) (37 °C)
CAAAAGCAAUAUUACGUUGA	-3.14 ± 0.14	-2.32 ± 0.12
CAACAGCAAUAUUACGACUG	-0.232 ± 0.052	0.0876 ± 0.072
CAACAGCAAUAUUACGAUAU	-4 ± 0.15	-2.2 ± 0.13
CAACAGCAAUAUUACGAUGA	-1.53 ± 0.12	-0.678 ± 0.089
CAACAGCAAUAUUACGAUUU	-0.837 ± 0.067	-0.69 ± 0.083
CAACAGCAAUAUUACGCAAA	-3.57 ± 0.33	-2.37 ± 0.14
CAACAGCAAUAUUACGCAGC	-4.4 ± 0.25	-2.75 ± 0.29
CAACAGCAAUAUUACGCCAA	-2.36 ± 0.14	-1.62 ± 0.14
CAACAGCAAUAUUACGCCCA	-0.825 ± 0.097	-1.04 ± 0.1
CAACAGCAAUAUUACGCCGU	-4.14 ± 0.29	-2.82 ± 0.38
CAACAGCAAUAUUACGCGGU	-2.36 ± 0.12	-2.88 ± 0.28
CAACAGCAAUAUUACGCUUC	-3.83 ± 0.24	-2.18 ± 0.2
CAACAGCAAUAUUACGGACU	-2.52 ± 0.11	-1.33 ± 0.14
CAACAGCAAUAUUACGGAUC	-3.08 ± 0.12	-1.89 ± 0.12
CAACAGCAAUAUUACGGCCU	-3.63 ± 0.16	-1.3 ± 0.12
CAACAGCAAUAUUACGGCUU	-1.88 ± 0.082	-0.875 ± 0.087
CAACAGCAAUAUUACGGGCA	-2.61 ± 0.1	-1.9 ± 0.12
CAACAGCAAUAUUACGGGCU	-3.65 ± 0.13	-2.66 ± 0.14
CAACAGCAAUAUUACGUCAA	-3.49 ± 0.13	-2.08 ± 0.1
CAACAGCAAUAUUACGUCAC	-3.96 ± 0.24	-2.26 ± 0.18
CAACAGCAAUAUUACGUCCG	-0.0787 ± 0.06	0.513 ± 0.076
CAACAGCAAUAUUACGUGGG	-3.25 ± 0.096	-1.11 ± 0.075
CAACAGCAAUAUUACGUGUG	-3.55 ± 0.14	-2.32 ± 0.11
CAACAGCAAUAUUACGUUAG	-2.13 ± 0.076	-1.52 ± 0.089
